The results in this text go back to patent publication US20140038292.

The series relates to T1, Tol1 transposase (851 aa) (Oryzias latipes).
T1 sequence: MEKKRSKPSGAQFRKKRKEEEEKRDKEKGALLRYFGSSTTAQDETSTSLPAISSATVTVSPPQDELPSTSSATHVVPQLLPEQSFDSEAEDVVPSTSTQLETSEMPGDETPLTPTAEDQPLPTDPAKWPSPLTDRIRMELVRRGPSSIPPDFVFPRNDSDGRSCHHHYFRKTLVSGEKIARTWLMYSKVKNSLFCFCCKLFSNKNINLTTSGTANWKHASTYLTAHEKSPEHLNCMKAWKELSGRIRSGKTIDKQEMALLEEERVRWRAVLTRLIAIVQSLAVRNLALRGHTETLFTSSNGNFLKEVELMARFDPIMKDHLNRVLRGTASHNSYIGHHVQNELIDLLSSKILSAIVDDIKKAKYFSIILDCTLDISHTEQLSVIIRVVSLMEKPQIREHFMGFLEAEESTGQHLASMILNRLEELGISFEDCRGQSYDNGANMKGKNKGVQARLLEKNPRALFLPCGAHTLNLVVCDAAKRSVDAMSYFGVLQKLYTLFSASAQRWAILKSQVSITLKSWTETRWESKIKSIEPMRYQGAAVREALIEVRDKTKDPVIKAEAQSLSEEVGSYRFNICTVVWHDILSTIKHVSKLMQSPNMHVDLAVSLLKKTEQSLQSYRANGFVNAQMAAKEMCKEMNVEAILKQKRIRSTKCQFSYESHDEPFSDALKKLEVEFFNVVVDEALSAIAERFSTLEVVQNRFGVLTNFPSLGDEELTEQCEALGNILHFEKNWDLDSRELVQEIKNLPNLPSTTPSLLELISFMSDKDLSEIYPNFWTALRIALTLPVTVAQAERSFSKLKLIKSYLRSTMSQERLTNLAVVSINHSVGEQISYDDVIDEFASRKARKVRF
Put plainly: cell_activity. As to conditions: HeLa, donor 200 ng, helper 800 ng; 8 bp TSD at insertions.

With “Tol1-tyr element (1855 bp), donor plasmid”, the activity (net G418-resistant colonies) was found to be 3660.
